Data taken from patent publication US20130071375.

Key:
[1] = target: High mobility group box 1 (UniProt P09429)
[2] = target: Thrombomodulin (recombinant) (UniProt P07204)
Chain of Thrombomodulin (recombinant) (P07204 whole entry, looked up): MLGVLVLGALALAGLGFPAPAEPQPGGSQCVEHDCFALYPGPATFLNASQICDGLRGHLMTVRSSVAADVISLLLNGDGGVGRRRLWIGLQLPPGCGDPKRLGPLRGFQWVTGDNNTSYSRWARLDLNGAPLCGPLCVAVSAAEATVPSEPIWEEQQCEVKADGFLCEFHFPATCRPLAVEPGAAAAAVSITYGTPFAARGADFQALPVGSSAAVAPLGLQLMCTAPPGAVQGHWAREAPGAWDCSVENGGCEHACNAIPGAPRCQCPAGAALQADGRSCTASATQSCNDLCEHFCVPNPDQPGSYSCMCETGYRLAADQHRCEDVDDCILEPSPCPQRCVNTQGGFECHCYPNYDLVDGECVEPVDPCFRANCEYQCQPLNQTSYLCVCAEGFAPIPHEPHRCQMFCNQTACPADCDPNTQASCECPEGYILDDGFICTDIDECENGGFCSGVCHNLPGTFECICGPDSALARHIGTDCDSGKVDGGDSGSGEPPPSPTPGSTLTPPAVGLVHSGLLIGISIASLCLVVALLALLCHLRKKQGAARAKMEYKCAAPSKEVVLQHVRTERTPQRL

Chain of High mobility group box 1 (P09429 whole entry): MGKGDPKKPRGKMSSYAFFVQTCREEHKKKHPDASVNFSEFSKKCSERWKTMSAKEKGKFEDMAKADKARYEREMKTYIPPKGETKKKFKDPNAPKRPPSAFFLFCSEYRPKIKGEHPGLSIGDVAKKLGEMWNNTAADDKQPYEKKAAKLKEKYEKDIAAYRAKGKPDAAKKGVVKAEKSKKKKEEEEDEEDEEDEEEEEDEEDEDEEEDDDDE

Q: With Activated protein C as the substance, how does the “proteolytic degradation of HMGB1 by 100 nM APC, with or without soluble EPCR and/or PC/PS/PE vesicles, 2 hours at 37 C” value [1] read?
A: The value was “APC had no direct proteolytic effect on HMGB1 ... did not lead to the degradation of HMGB1 even after 2 hours incubation at 37 °C (data not shown)”.

Q: “PCgla/meizothrombin (meizothrombin with its Gla-domain replaced by that of protein C; Factor Xa-activated PCgla/prothrombin-3A)” was tested. Which “acceleration of HMGB1 cleavage by 2 nM PCgla/MeizoTh with 400 nmol/L recombinant TM, SDS-PAGE and immunoblot” value [2] did it give?
A: Its value is “TM can function as a cofactor to markedly accelerate the cleavage reaction”.

Q: And the “proteolytic cleavage of HMGB1 (400 nmol/L) by 2 nM protease, SDS-PAGE and immunoblot” value [1]?
A: Its value is “PCgla/MeizoTh can proteolytically cleave HMGB1”.
